In US20150150157A1, “PREPHENATE DEHYDROGENASES AND AROGENATE DEHYDROGENASES THAT ARE INSENSITIVE TO EFFECTOR FEEDBACK INHIBITION AND METHODS OF USING THE SAME” (Wisconsin Alumni Research Foundation, priority 2013, published 2015):

Columns and labels:
Format in all cases: biochemical
[1] = system: CM activity in the plastid fraction; assay: CM activity in plastidic fraction of soybean leaf with and without effector; settings: 1 mM effector
Method: (§1) CM activity from crude plant extracts and from cytosolic and plastidic fractions (FIG. 4I) was determined in the presence and absence of 1 mM L-Tyr or L-Trp (FIG. 4I) by detecting phenylpyruvate formation using the same HPLC method for HPLA detection (see above). Assays were set up as described above but were incubated for 60 min at 37° C. before addition of 1 N HCl. Phenylpyruvate was detected by UV absorbance at 270 nm and quantified by comparison to the authentic phenylpyruvate standard (Sigma-Aldrich).
(§2) Ten grams of 4-week-old soybean leaves were harvested at the end of the night to deplete starch. The fresh tissues were homogenized using a Polytron (Brinkmann, Westhury, N.Y.) in 10 ml of the plastid isolation buffer (0.5 M sorbitol, 20 mM HEPES (pH 7.4), 10 mM KCl, 1 mM MgCl2, 1 mM EDTA, 5 mM DTT and 1% BSA) (Kong and Rawsthorne. Plant J, 6: 795-805 (1994)). The homogenate was filtered through two layers of micracloth. The residual homogenate left on the micracloth was homogenized again in 10 ml of the isolation buffer and passed through two layers of micracloth, which was repeated once more to yield ˜30 ml of homogenate. The combined homogenate was centrifuged at 2,500 g for 5 min. The pellet was washed twice with the isolation buffer, resuspended in 4 ml of lysis buffer (25 mM HEPES (pH 7.5), 50 mM KCl) and left on ice for 20 min to rapture the plastids. […]

[2] = system: CM activity in the cytosol; assay: CM activity in cytosolic fraction of soybean leaf with and without effector; settings: 1 mM effector
Method: as §1, §2

[3] = Inhibition analysis: L-Tyr sensitivity of PDH activity, crude E. coli extract expressing Glyma11g35760; settings: for PDH activity: crude E. coli extract
Method: For recombinant protein expression, the cloned pFT28a vectors were introduced into Rosetta-2 E. coli competent cells (Novagen) and cultured overnight at 37° C., 200 r.p.m. in 10 ml LB medium containing kanamycin (100 μg/ml) and chloramphenicol (100 μg/ml). Two milliliters of the overnight culture were transferred to 50 ml LB medium with the same antibiotics and further incubated at 37° C. and 200 r.p.m. until the OD600 reached 0.3. The temperature was then changed to 18° C. and, after 1 h, isopropyl β-D-I-thiogalactopyranoside (IPTG, […] final concentration) was added to induce recombinant protein expression. After overnight incubation at 18° C. under constant shaking at 200 r.p.m, cultures were harvested by centrifugation at 2,000 g for 30 min at 4° C. and the pellet was resuspended in an appropriate volume of lysis buffer (25 mM HEPES, pH 7, 50 mM KCl, 10% ethylene glycol, 1 mM phenylmethylsulfortyl fluoride (PMSF) and 1 mM DTT) calculated on the basis of the formula (OD600×ml volume of culture)/30. The resuspended pellet was sonicated three times for 15 s. The cell lysate was centrifuged at 16,000 g for 10 min at 4° C. and the supernatant was applied to a column containing 500 μl PerfectPro Ni-NTA resin (5 PRIME, Hamburg, Germany). The column was washed with ten times the bed volume of wash buffer 1 (50 mM sodium phosphate buffer, pH 8.0, 300 mM NaCl, 20 mM imidazole) followed by ten times the bed volume of wash buffer II (50 mM sodium phosphate buffer, pH 8.0, 300 mM NaCl, 40 mM imidazole) and then wash buffer III (50 mM sodium phosphate buffer, pH 8.0, 300 mM NaCl, 60 mM imidazole). The recombinant enzymes containing an N-terminal His6 tag were eluted from the resin with 1 ml of elution buffer (50 mM sodium phosphate buffer, pH. 8.0, 300 mM NaCl, 500 mM imidazole) and desalted as described above. The purity of the purified recombinant enzymes was estimated by running on SDS-PAGE gel (FIG. 12) and analyzing with ImageJ (http://imagej.nih.gov/ij/). The recombinant enzyme of Glyma11g35760 was tested for Tyr sensitivity (FIG. 5A) using crude E. coli extract as its purification was not successful owing to its low expression (FIG. 3B and FIG. 3C) and insolubility.
(§3) ADH and PDH reactions using GmPDH1, Glyma11g35760, MtPDH1 and AtADH2 (FIG. 5A) contained 200 mM HEPES (pH 7.3), 50 mM KCl, 10% ethylene glycol, 1 mN4 NADP^+ and 1 mM substrate (L-arogenate or prephenate, respectively). Reactions were started by addition of enzyme and incubated at 37° C. for 15 min in the presence of increasing concentrations of effectors: L-Tyr FIG. 5A), L-Phe, L-Trp and HPP. Tyr was dissolved in basic conditions (0.025 N NaOH) to dissolve at high concentrations (up to 10 mM), though 200 mM HEPES maintained the final reaction pH at 7.6. Tyr sensitivity of purified recombinant GmPDH1 and MtPDH1 was also tested at prephenate concentrations ranging from […] to 59 μM, below the K values for GmPDH1 and MtPDH1, while keeping the L-Tyr concentration constant at 1 mM (FIG. 13). Enzyme activity was measured for the production of reduced cofactor (NADPH) at 340 nm using a spectrophotometer, except for crude soybean extracts, which were analyzed by HPLC after 45 min incubation and reduction to HPLA as described above.

[4] = Qualitative HPLC detection of PDH activity in E. coli cell lysates expressing candidate enzymes; settings: 2 mM prephenate, saturating conditions
Method: ADH and PDH reactions contained 25 mM HEPES (pH 7.5), 50 mM KCl, 10% ethylene glycol, 1 mM NADP (or NAD^+), 2 mM substrate (L-arogenate or prephenate, respectively) unless otherwise noted. Arogenate was prepared by enzymatic conversion from prephenate (Sigma-Aldrich), as previously reported. Reactions were started by addition of enzyme from various sources and incubated at 37′ C. for a given amount of time, as noted below,
HPLC-based methods were used to directly detect the final products of ADH and PDH assays, Tyr and HPP, respectively from crude E. coli extracts (FIG. 3B and FIG. 3C) and crude plant extracts (FIG. 2A and FIG. 6). For HPLC detection of PDH activity, reactions were incubated for 45 min and terminated by addition of NaBH4, which converts the reaction product HPP (which produced multiple peaks; FIG. 6) into hydroxyphenyllactic acid (HPLA), followed by neutralization with 100 μl of 6 N HCl. The conversion and recovery rate was 80±1.5% s.d. which was taken into account for the calculation of specific activity from crude plant extracts (FIG. 2C). HPLA was detected as a single peak (FIG. 2A) after being separated by HPLC (Agilent 1260, Santa Clara, Calif.) equipped with a ZORBA X SB-C18 column (Agitent) using a 6-min isocratic elution at 25% methanol in 0.1% phosphoric acid, followed by a 20-min linear gradient of 25-60% methanol at a flow rate of 1.0 ml/min. HPLA was detected using UV absorbance at 270 nm and quantified by a calibration curve generated from the authentic HPLA standard (Sigma-Aldrich). For HPLC-based detection of ADH activity (FIG. 3B), reactions were incubated for 45 min and terminated by addition of methanol to a final concentration of 66% (v/v). The product, Tyr, was derivatized with OPA and separated on a ZORBAX eclipse-XDB C18 column (Agilent) using a 30-min linear gradient of 20-45% methanol in 0.1% animonium acetate at a flow rate of 0.8 ml/min. Tyr was detected by UV absorption at 336 nm and quantified on the basis of a calibration curve generated by the authentic Tyr standard (Acros, Geel, Belgium).
The crude enzyme extracts were first subjected to PDH and ADH assays using saturating conditions to screen for any detectable PDH and/or ADH activity (FIG. 3B and FIG. 3C). ADH activity was detected from all five candidates. In contrast, PDH activity was detected only in Glyma11a35760 and Glyma18g02650 as well as their closest homolog from Medicago (Mt3g071980) but not in Glyma5g07870, Glyma17g13150 and Glyma14g05990 (FIG. 3C).

[5] = Inhibition analysis: L-Tyr sensitivity of ADH activity of recombinant AtADH2; settings: for ADH activity: 1 mM L-arogenate, 1 mM NADP+, 37° C., 15 min
Method: as §3

N[C@@H](Cc1c[nH]c2ccccc12)C(=O)O [L-Trp, tryptophan]
induction of CM activity in the plastid fraction [1]: approximately threefold
CM activity in the cytosol [2]: increased

N[C@@H](Cc1ccc(O)cc1)C(=O)O [L-Tyr, Tyrosine]
CM activity in the plastid fraction [1]: completely inhibited
CM activity in the cytosol [2]: only slightly decreased

B1: Glyma11g35760: soybean PDH enzyme, paralog of Glyma18g02650, tested as crude E. coli extract (protein)
chain: MTTMSTSSSSQSLKIGIVGFGNFGQFLAKTMIKQGHTLTATSRSDYSQLCLQMGIHFFRDVSAFLAADIDVIVLCTSILSLSEVVGSMPLTSLKRPTLFVDVLSVKEHPRELLLRELPEDSDILCTHPMFGPQTANNGWTDHTFMYDKVRIRDEATCSSFIQIFATEGCKMVQMSCEEHDRAAAKSQFITHTIGRTLGEMDIQSTPIDTKGFETLVKLKETMMRNSFDLYSGLFVYNRFARQELENLEHAFYKVKETLMIQRSNGEQGHKRTES
modifications: Glycine max
notes: soybean PDH enzyme, paralog of Glyma18g02650, tested as crude E. coli extract
inhibition of PDH activity by L-Tyr ([3]; E. coli extract expressing the enzyme): not inhibited
PDH activity ([3]; L-Tyr 0 mM): 1219 ± 76 pKat/mg
PDH activity ([3]; L-Tyr 0.01 mM): 1211 ± 39 pKat/mg
PDH activity ([3]; L-Tyr 0.1 mM): 1173 ± 16 pKat/mg
PDH activity ([3]; L-Tyr 1.0 mM): 1250 ± 63 pKat/mg
PDH activity ([3]; L-Tyr 10 mM): 1109 ± 79 pKat/mg
PDH activity (qualitative detection) [4]: detected

B2: AtADH2: Arabidopsis thaliana arogenate dehydrogenase 2, recombinant enzyme, inhibited by L-Tyr (protein, UniProt Q9LMR3 37-358, looked up)
Arogenate dehydrogenase 2, …: IDAAQIFDYETQLKSEYRKSSALKIAVLGFGNFGQFLSKTLIRHGHDLITHSRSDYSDAANSIGARFFDNPHDLCEQHPDVVLLCTSILSTESVLRSFPFQRLRRSTLFVDVLSVKEFPKALFIKYLPKEFDILCTHPMFGPESGKHSWSGLPFVYDKVRIGDAASRQERCEKFLRIFENEGCKMVEMSCEKHDYYAAGSQFVTHTMGRVLEKYGVESSPINTKGYETLLDLVENTSSDSFELFYGLFMYNPNALEQLERLDMAFESVKKELFGRLHQQYRKQMFGGEVQSPKKTEQKLLNDGGVVPMNDISSSSSSSSSSS
reduction of ADH activity ([5]; 100 μM L-Tyr): ~75%
ADH activity ([5]; L-Tyr 0 mM): 923 ± 34 uKat/mg
ADH activity ([5]; L-Tyr 0.01 mM): 766 ± 35 uKat/mg
ADH activity ([5]; L-Tyr 0.1 mM): 251 ± 45 uKat/mg
ADH activity in the presence of L-Tyr ([5]; ≧1 mM L-Tyr): abolished

B3: Glyma14g05990: soybean enzyme having predominately arogenate dehydrogenase activity (protein)
chain: MSTWSLKIGVVGFGSFGQFLAKTMIKQGHTLRATSRTDYSLLCLPMGIQFFRDVAAFLEADNDVILVCTSILSLSEVLSSMPLTCLKRSTLFVDVLSVKEHPRNLLIKVLPEESDILCTHPMFGPDSGKDGWQDLTFVYDKVRIRDEAICSSFLHIFASEGCRMLQMSCEEHDKIAAKSQFITHTIGRTLAEMDIKSTPIDTKGFHSLVQLKDTTIRDSFDLYSGLFLHNRFAVQELENLEHALHKVKEMLVQRKSEELGLEKTEC
modifications: Glycine max
PDH activity (qualitative detection) [4]: not
